Test results: patent US20180291335A1, “MODIFIED POLYNUCLEOTIDES FOR ALTERING CELL PHENOTYPE” (ModernaTX, Inc., priority 2012, published 2018)
Where “and” joins values, the source holds several entries; their conditions need not be identical. Equal entries are not always repeated.

What was measured:
[1] = test system: peripheral blood mononuclear cells (PBMC); experiment: In vitro screening in PBMC: G-CSF protein expression by ELISA; type: cell-based, human
How it was run: (§1)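 After harvest, the medium above the cells is stored frozen; later, ELISA quantifies G-CSF expression plus IFN-α and TNF-α levels.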

interferon-alpha (IFN-α) = experiment: In vitro screening in PBMC: interferon-alpha induction by ELISA; type: cell-based, human
How it was run: as §1

[2] = test system: tumor necrosis factor alpha (TNF-α); experiment: In vitro screening in PBMC: tumor necrosis factor alpha induction by ELISA; type: cell-based, human
From the text: The supernatant was harvested and stored frozen until analyzed by ELISA to determine the G-CSF protein expression, and the induction of the cytokines interferon-alpha (IFN-α) and tumor necrosis factor alpha (TNF-α).

HeLa cells = experiment: G-CSF modified mRNA transfected in HeLa cells, G-CSF ELISA; type: cell-based, human; details: HeLa cells, ELISA
How it was run: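 G-CSF ELISA readout after 250 ng of chemically modified human G-CSF mRNA (transcribed by mutant T7 polymerase) was added to rabbit reticulocyte lysate or transfected in vitro into HeLa cells.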

rabbit reticulysates = experiment: G-CSF modified mRNA in rabbit reticulysates, G-CSF ELISA; type: biochemical; details: 250 ng of modified mRNA, listed as 5-methylcytosine/N1-methylpseudouridine
Procedure: To assess the activity of all our different chemical modifications in the context of a second open reading frame, we replicated experiments previously conducted using luciferase mRNA, with human G-CSF mRNA. […] The mutant T7 polymerase was obtained commercially (Durascribe® T7 Transcription kit (Cat. No. DS010925) (Epicentre®, Madison, Wis.).
The modified RNA in Tables 27 and 28 were transfected in vitro in HeLa cells or added to rabbit reticulysates (250 ng of modified mRNA) as indicated. […] In Table 27, “NT” means not tested.

[3] = test system: interferon-alpha (IFN-alpha); experiment: 2′Fluoro chemistries in PBMC: IFN-alpha production by ELISA; type: cell-based, human; details: G-CSF modified mRNA
[4] = test system: tumor necrosis factor-alpha (TNF-alpha); experiment: 2′Fluoro chemistries in PBMC: TNF-alpha production by ELISA; type: cell-based, human; details: G-CSF modified mRNA
[5] = PBMC Donor 1, 500 ng G-CSF mRNA
[6] = PBMC Donor 2, 500 ng G-CSF mRNA
[7] = PBMC Donor 3, 500 ng G-CSF mRNA
[8] = PBMC Donor 2, 500 ng G-CSF mRNA, listed as 5-methylcytosine and N1-methylpseudouridine (2nd set)
[9] = PBMC Donor 2, 500 ng G-CSF mRNA, listed as 5-methylcytosine and N1-methylpseudouridine (4th set)
[10] = PBMC Donor 3, 500 ng G-CSF mRNA, listed as 5-methylcytosine and N1-methylpseudouridine (2nd set)
[11] = PBMC Donor 3, 500 ng G-CSF mRNA, listed as 5-methylcytosine and N1-methylpseudouridine (4th set)
[12] = listed as 5-methylcytidien/N1-methylpseudouridine
[13] = listed as 5-methylcytidine/N1-methylpseudouridine

B1: 5-methylcytosine and N1-methyl-pseudouridine (1^st set): G-CSF mRNA (SEQ ID NO: 408) fully modified with 5-methylcytosine and N1-methylpseudouridine; repeated sets/tests (nucleic acid)
chain: GGGAAAUAAGAGAGAAAAGAAGAGUAAGAAGAAAUAUAAGAGCCACCAUGGCCGGUCCCGCGACCCAAAGCCCCAUGAAACUUAUGGCCCUGCAGUUGCUGCUUUGGCACUCGGCCCUCUGGACAGUCCAAGAAGCGACUCCUCUCGGACCUGCCUCAUCGUUGCCGCAGUCAUUCCUUUUGAAGUGUCUGGAGCAGGUGCGAAAGAUUCAGGGCGAUGGAGCCGCACUCCAAGAGAAGCUCUGCGCGACAUACAAACUUUGCCAUCCCGAGGAGCUCGUACUGCUCGGGCACAGCUUGGGGAUUCCCUGGGCUCCUCUCUCGUCCUGUCCGUCGCAGGCUUUGCAGUUGGCAGGGUGCCUUUCCCAGCUCCACUCCGGUUUGUUCUUGUAUCAGGGACUGCUGCAAGCCCUUGAGGGAAUCUCGCCAGAAUUGGGCCCGACGCUGGACACGUUGCAGCUCGACGUGGCGGAUUUCGCAACAACCAUCUGGCAGCAGAUGGAGGAACUGGGGAUGGCACCCGCGCUGCAGCCCACGCAGGGGGCAAUGCCGGCCUUUGCGUCCGCGUUUCAGCGCAGGGCGGGUGGAGUCCUCGUAGCGAGCCACCUUCAAUCAUUUUUGGAAGUCUCGUACCGGGUGCUGAGACAUCUUGCGCAGCCGUGAAGCGCUGCCUUCUGCGGGGCUUGCCUUCUGGCCAUGCCCUUCUUCUCUCCCUUGCACCUGUACCUCUUGGUCUUUGAAUAAAGCCUGAGUAGGAAG
modifications: 5-methylcytosine/N1-methylpseudouridine modified; Description of Artificial Sequence: Synthetic Transcript Sequence
notes: repeated sets/tests
G-CSF Protein Expression [1, 5]: 10,232 pg/ml | G-CSF Protein Expression ([1]; PBMC Donor 1, 500 ng G-CSF mRNA, listed as 5-methylcytosine and N1-methyl-pseudouridine (2nd set)): 9,564 pg/ml | G-CSF Protein Expression ([1]; PBMC Donor 1, 500 ng G-CSF mRNA, listed as 5-methylcytosine and N1-methyl-pseudouridine (4th set)): 9,505 pg/ml | G-CSF Protein Expression [1, 6]: 7,245 pg/ml | G-CSF Protein Expression ([1]; PBMC Donor 2, 500 ng G-CSF mRNA, listed as 5-methylcytosine and N1-methyl-pseudouridine (2nd set)): 8,509 pg/ml | G-CSF Protein Expression ([1]; PBMC Donor 2, 500 ng G-CSF mRNA, listed as 5-methylcytosine and N1-methyl-pseudouridine (4th set)): 6,927 pg/ml | G-CSF Protein Expression [1, 7]: 6,214 pg/ml | G-CSF Protein Expression ([1]; PBMC Donor 3, 500 ng G-CSF mRNA, listed as 5-methylcytosine and N1-methyl-pseudouridine (2nd set)): 7,141 pg/ml | G-CSF Protein Expression ([1]; PBMC Donor 3, 500 ng G-CSF mRNA, listed as 5-methylcytosine and N1-methyl-pseudouridine (4th set)): 5,405 pg/ml | IFN-α Expression (interferon-alpha (IFN-α); [5]): 0 pg/mL | IFN-α Expression (interferon-alpha (IFN-α); [6]): 60 pg/mL | IFN-α Expression (interferon-alpha (IFN-α); [8]): 66 pg/mL | IFN-α Expression (interferon-alpha (IFN-α); [9]): 0 pg/mL | IFN-α Expression (interferon-alpha (IFN-α); [7]): 136 pg/mL | IFN-α Expression (interferon-alpha (IFN-α); [10]): 140 pg/mL | IFN-α Expression (interferon-alpha (IFN-α); [11]): 0 pg/mL | TNF-α Expression [2, 5]: 54 pg/mL | TNF-α Expression ([2]; PBMC Donor 1, 500 ng G-CSF mRNA, listed as 5-methylcytosine and N1-methylpseudouridine (2nd set)): 54 pg/mL | TNF-α Expression ([2]; PBMC Donor 1, 500 ng G-CSF mRNA, listed as 5-methylcytosine and N1-methylpseudouridine (4th set)): 36 pg/mL | TNF-α Expression [2, 6]: 79 pg/mL | TNF-α Expression [2, 8]: 97 pg/mL | TNF-α Expression [2, 9]: 14 pg/mL | TNF-α Expression [2, 7]: 126 pg/mL | TNF-α Expression [2, 10]: 149 pg/mL | TNF-α Expression [2, 11]: 13 pg/mL | G-CSF protein (pg/ml) HeLa cells (HeLa cells; G-CSF mRNA, listed as 5-methylcytosine/N1-methylpseudouridine, Control): 1,106,591 pg/ml | G-CSF protein (pg/ml) HeLa cells (HeLa cells; G-CSF mRNA, listed as 5-methylcytosine/N1-methylpseudouridine, Test A): 1,534,318 pg/ml | G-CSF protein (pg/ml) HeLa cells (HeLa cells; G-CSF mRNA, listed as 5-methylcytosine/N1-methylpseudouridine, Test B): 1,568,636 pg/ml | G-CSF protein (pg/ml) HeLa cells (HeLa cells; G-CSF mRNA, listed as 5-methylcytosine/N1-methylpseudouridine, Test D): 1,168,864 pg/ml | G-CSF protein (pg/ml) HeLa cells (HeLa cells; combination chemistries, listed as 5-methylcytidine/N1-methylpseudouridine): 747,045 pg/ml and 689,091 pg/ml | G-CSF protein (pg/ml) HeLa cells (HeLa cells; combination chemistries, listed as 5-methylcytosine/N1-methylpseudouridine): 1,017,727 pg/ml | G-CSF protein (pg/ml) HeLa cells (HeLa cells; combination chemistries, listed as 5-methylcytosine/N1-methylpseudouridine, Control 1): 848,409 pg/ml | G-CSF protein (pg/ml) HeLa cells (HeLa cells; combination chemistries, listed as 5-methylcytosine/N1-methylpseudouridine, Control 2): 581,818 pg/ml | G-CSF protein (pg/ml) Rabbit reticulysates cells (rabbit reticulysates; Test A): 110,500 pg/ml | G-CSF protein (pg/ml) Rabbit reticulysates cells (rabbit reticulysates; Test B): 76,750 pg/ml | G-CSF protein (pg/ml) Rabbit reticulysates cells (rabbit reticulysates; Test D): 97,125 pg/ml | IFN-alpha: 3 Donor Average [3, 12]: 35 pg/mL | IFN-alpha: 3 Donor Average [3, 13]: 31 pg/mL | TNF-alpha: 2 Donor Average [4, 12]: 3 pg/mL | TNF-alpha: 2 Donor Average [4, 13]: 280 pg/mL
